According to a protein production outcome set (Wang et al. 2014):

Test: label from the status in PepcDB records

Sequence | protein production
MLEACESKLDIIKNFVPSWFAAVMGTGILAVDSLLYSSYLPILKDVAVGLFYFNVLLFFIFLVPWVLRWIMFKDNALADLKHPVLSAFYPTIAVSCLVLGADFINIGHNMFWGGVFWTLGAIGMFLFSLIVPFYMFKSESIKLDHVNPGWYIPPVGLIVIPIAGSLIMPHLTGVWHELTVLINYFGWGAGFFLYLALLAVVIYRFILHHPLPSAMAPTVWINLGPIGAGIVALINMVNNSPFITIKEPFYIFSFIFWGFGLWWSLMAIIMTLYYVKKLKLPYAMSWWAFIFPLGAYVASSHLVYKIFKFSIIDYIGFGLYWLLFFFWAITLIKTTNKVYTGEVFKGH | failed
VLAPNVYFNPDAPPRKKRPLNVCAPEVVFFPTEDGVNLRLTRYNGGGKGPVMLVHGLGVGSNIFSTDTISTNLLEYLYQHGYDVWLLDFRVSILLPASQQQWDGDQVARYDYPAAIRRIREATGAADVQCVVHCYGATTFFMSMLAGLEGVRSVVCSQIAADIVVPTATQVKTGLHLPTVLDKLGVSSLTAYTASDSNWFEKLYDTALKGYALAEAQGYCNNPVCHRITFMYASLYRHETLNETLHDNLHELFGVANMRTMEHLARMCREGRLVSFDGDDIYMPHFDRLQMPILFISGEQNECYLPESTERTFDKLAQRFGPERYSRLVVPGYGHIDCMFGKNAAADVYPAIVAHLDKT | failed
MKRGLRKERNKEDEAGKIVNEGKAHLFYKVIILMVFYISYGIYLYWRFAYTIPRGYGDIALIAGYVLFIAETIGFLESSMFYLTLWDTNTPSTPEVQDKEFPHVDIFIASYNEPRNLLYKTLIGCKNMDYPDKSKVHIYICDDGNRKDIKELCESLKVGYITREDNTHAKAGNLNNALKQTSSPYVVTFDADMIPMHDFLLKTIPFFMVEDKIGFVQVPQNFYNADPFQYNLFNESRVPNEQNLFSRLIQAGKNRFNAIIYSGSNTVLSREALNEINGLVVGTITEDFATGMKIQSKGYKCIYLNETHASGLSPESLEDLYSQRIRWGRGVIQTFKAFNPLFMRGLNIYQKLMYFSAFSYWYFGLWRLIFFMAPIVFSVFGVVVLSTSAIQMLEVWLPMFIFTNLTFYHFSKKVRSVSWTHIYDTILFPQITVGILKETFGFKMSKFKVTPKENVRRDNFTNRFELVRVQIVLAVLSFAGIVRIIYLYVTNNFEAQYIINLFWLTYNFYLLVMAIFFASERPKFRNNERMFVSEEAYVVNNEQKLYGKTIDISETGISIKLEKPICIDPNENYSIGVKTARNSAEFSGKIVRVDNFKDGHKYAFNITEIDEKNFSELILILYDRVPPSPEKQKRDYMTVNVLRNIINRKKRIVPLNRKLPRVKIDKKVKILVSKNEEGIHVVDFNYMYIAVKCVQEYDSFILPLSEKFNINLNCTYDKTLSERNRKKVSIYKVTNYDEFKDHDLLELLKAVPVYNEELNIHEKVAAVK | failed
ASASIKKVAATLADAAITDGIGDATKAKAALDKISDAGGLIEDIGATRAQFGANINRLEHTMTNLGNMVENTSAAKGRIM | failed
MSLHDQRVHAERDPLDPQAHGLTITRIETIPMVAPLAREFRGSHYHMTHRATIVTRVHTDAGIIGEAYTGDEHETMFDIDRIIHEELAPTLIGQDAMAIERLWDSGYKVTFDILRDRRLGLVALAAVNTAIWDAVGKALKMPLWKLWGGYRNELPMIAIGGYYGEPLGSIADEMHNYQELGLAGVKFKVGGLSAAEDAARITAAREAAGDDFIICIDANQGYKPAVAVDLSRRIADLNIRWFEEPVEWHNDKRSMRDVRYQGSVPVCAGQTEFSASGCRDLMETGAIDVCNFDSSWSGGPTAWLRTAAIATSYDVQMGHHEEPQVSTHLLASQPHGTIAECFHPDRDPFWWNMITNRPKLNNGTLTLSDRPGLGWDLNWDYIDQYRVSKDEGHHHHHH | not failed
MEDTMSKKAKKIIKIVVISIVTLAITICFGGYMMFHNEIKTLHSIEKLDDYPFYMMEYYGDYGLDEFLEQGGASSDSELVSFVVKRLMKGLPIEINIPSLGCSTFTAVTPENEYLFGRNFDLSYSPAMMVRTKPEKGYESVSMVNLGFIGYGKDKLPDNFFNSITTLAGPYAPLDGMNEKGLSVGVLLIPTEETNQTTNKVDITTTTAIRMILDTCATVEEAVDLLSQYDMHSSANSCYHFQIADANGTSVVVEYINNEMKLVEPKQAYQAATNFLLTPGDYDFGHGQDRYNTLMTTLDKKQGVLSEKEAMNLLKAVSQQPHKTKDGSISATQWSVVYNNTKRTATVSMGMDYQHTYEIKLFE | failed
MKTFNESNGTNANVLMVGLTLVQAAAAKGAVCLDGSVPGYHLCRGYGSGANNWIIQLQGGAWCDSIQNCQSRKGSGYGSSTLMEKELAFLGLLSNKAAENPDFYNWNKVKVRYCDGASFDGDSENKAAQLQYRGKRIFLAVMEDLMEKGMRQAKQALLSGCSSGGLSAILRCDDFNNLFPPTTTVKCMSDAGFFLDAVDVSGGHSLRRMYSGVVNTQGLQNTLPPTCTSHIKPFLCFFPQYIINQVKTPLFILNSGFDSWQIGNSLAPPSADKSGSWHNCSFSFRCTASQMHFLEGFKMSMLDALKTFSKFSKNGVLITSGWAHCQAERQDTWFPGYSGAGKAKGIAVAVGDWYFERTKQNSS | failed
MQTESNPLAERFIARNLLDLAIRITLIGGLTVWCYRVAEPFIGMLLWSIILAVTLAPLHMRLTRLLGARPRLAAVVLTLATMLVLLVPGAMLTASLGDSLVNIFHHSTGRIVRIPAPPDFVIELPLIGVRLHEIWLQAMTNLQDVLKPLQPHLATAGRWLLAGMASAGLGIAVFLASIAIAGVILVYADPAKRAAHAIGVRIAGPEQGVALAQLTAATIRAVAQGVIGVALIQAVLAGLGFLLAGVPAAGLWAIVALLICIVQLPLFLLMVPMVVYVFLNNTPTVAAVFAVWCLLVSLCDNVLKPLMLARGVDIPIPVILIGALGGVLAAGIVGLFLGSVGFGLGYVLFMQWVRQQSPAG | failed
MRADALKRREHIITTTCNLYRTHHHDSLTMENIAEQAGVGVATLYRNFPDRFTLDMACAQYLFNVVISLQLQAISTFPTDPEGVWTSFNQLLFDRGLGSLVPALAPESLDDLPDEVSALRRTTEKNTTTLINLAKQHGLVHHDIAPGTYIVGLITISRPPITALATISENSHKALLGLYLSGLKHGMMANIGEHDGKS | not failed
MKVLLIQPPSSTAFMDKVYMYEPLGLEYLGAGLQEDGHEVLLLDARLEPDFEKAFHSFQPDIVGITGYTNHLNIVKAIAARFKSINPEVFIIVGGHHATVKPADYNDQAIDLIIIGEGVFTLRQVLKHKESLLPFEDIPGLAIPGAVMKFTAERPYTPLDDLPFPDRSLTARYRNHYFSDWMKPIASIRTSLGCFGRCNFCALWSITNGKYLQRNPERIVAELQGIQEEIVFFCDDESMCDTRRMDQLADLIQEAGIRKKYFLYGRVDTIVKHPELFAKWKNIGLIQVFVGFESFSDERLQGLNKNITVAQQEEAVKILNDLNIDIYASFVIDPSFTRQEFTQLIAYTRKLNIAYAALSVLTPLPGTALYEQNKDRLLTHDPKFFDFMHTVLPTALPLKQFYSEYARTLMKATPIPRYFRFIAKFDRQRRLSTMKELYGVVGDVRKGYQWHQAKES | failed
MDELRELLKGEQQGIKILKEVLKKAKEGDEQELARLNQEIVKGEKQGVKVYKEAAEKARNPEKRQVIDKILEDEEKHIEWHKAASKQGNAEQFASLVQQHLQDEQRHVEEIEKKNLEHHHHHH | not failed
MNVLRPALLTLACMLASPVMSDDLPSLGDASSSIVSPEQEFQLGRAWLSMLRNQVDAISDPQLKDFVESSVYRLAETSDLQDHRLAFILIRDAQINAFAAPGGVIGVNGGLLLNAQTEGEYAAVLAHELGHLIQRHFARGIEAQQRMQLPVMAAMLAGIVAAAAGAGDAGIAAIAGTQAAAIQNQLRFSRQNEQEADRVGVTNMVRAGYDPRSMPNMFERLARQYRYDGKPPEFLLTHPVTESRIADTRNRAEQYPQGGKEDSLRYQQMRARTQLLFEETPGMAGKRFRAMLNDNPKLDAARYGLAISQTRIGQLNDARDNLRQLLAKAPNDVAYNLAQVELDITANRLPDADQRLKKMLAQFPSSYPLKQVRADLMLKMGKPQESEKILDDLSKARPLDPDVWNRLAEVRSLTNNAIGVHQARAEYLSLTGDYQAAIEQLDFAKRRAGGNFQLAARLDARQQEIRQQEKMVKEMFR | failed
MWTTRLVRSGLAALCAAVLVSSGCARFNDAQSQPFTTEPELRPQPSSTPPPPPPLPPVPFPKECPAPGVMQGCLESTSGLIMGIDSKTALVAERITGAVEEISISAEPKVKTVIPVDPAGDGGLMDIVLSPTYSQDRLMYAYISTPTDNRVVRVADGDIPKDILTGIPKGAAGNTGALIFTSPTTLVVMTGDAGDPALAADPQSLAGKVLRIEQPTTIDQTPPTTALSGIGSGGGLCIDPVDGSLYVADRTPTADRLQRITKNSEVSTVWTWPDKPGVAGCAAMDGTVLVNLINTKLTVAVRLAPSTGAVTGEPDVVRKDTHAHAWALRMSPDGNVWGATVNKTAGDAEKLDDVVFPLFPQGGGFPRNNDDKT | failed
MANYPKELPAQTQSRQPGIESEMNPSPVYEYEDYKGADKLKGKVALITGGDSGIGRAVSVAYAKEGADIAIVYKDEHEDAEETKKRVEQEGVKCLLIAGDVGEEEFCNEAVEKTVKELGGLDILVNNAGEQHPKESIKDITSEQLHRTFKTNFYSQFYLTKKAIDYLKPGSAIINTTSINPYVGNPTLIDYTATKGAINAFTRTMAQALVKDGIRVNAVAPGPIWTPLIPATFPEETVAQFGQDTPMGRPGQPVEHVGCYVLLASD | not failed
LEEFKNSSKLVAAAEKERLDKHLGIPCNNCKQFPIEGKCYKCTECIEYHLCQECFDSYCHLSHTFTFREKRNQKWRSLEKRADEV | not failed
MSTQENVQIVKDFFAAMGRGDKKGLLAVSAEDIEWIIPGEWPLAGTHRGHAALAALLQKASEMVEISYPEPPEFVAQGERVLVVGFATGRVKSTNRTFEDDWVFAITVRKSKVTSIREYIDTLALARATNFNAT | not failed
MGEKKGLSFFEKYLSLWVALCIVLGILIGKFMPSLPRTLSKLTIANVNMAIAVLIWAMIYPMMVKVDFSAIKRVHKGQMLKGLIVTWVTNWLIKPFSMFLISSFFIGTIFSMKLGLIDPSLAKEYIAGAILLGAAPCTAMVFVWSYLADGDPLYTLVQVATNDIIILFAFAPIVGFLMGLNKVPVPYDTLLLSVVLFVVIPLSAGYLSRRYILKTKGHKWFEQEFLPKLSTISIVGLLLTLILLFSFQGEIILENPLHIALIAIPLTIQTYFIFAIAYGWAWIWKLPHKVAAPASFIGASNFFELAVAVAIALFGLDSGAALATVVGVLEEVPIMLSLVWIANKTRHFFTAKFETGSGSKAWALLRNSLPYYPYCPNHEDIRKDTYKQMNLYPVLFFLG | failed
MSLGQQQVTLFWSGAITGPTSDAGAPYGAAVEDYCKWANERKLVPGVVFNCVVRDDQYNNANTQRFFEEAVDRFKIPVFLSYATGANLQLKPLIQELRIPTIPASMHIELIDPPNNDYIFLPTTSYSEQVVALLEYIAREKKGAKVALVVHPSPFGRAPVEDARKAARELGLQIVDVQEVGSGNLDNTALLKRFEQAGVEYVVHQNVAGPVANILKDAKRLGLKMRHLGAHYTGGPDLIALAGDAAEGFLWATSFYMAHEDTPGIRLQKEIGRKYGRPENFIESVNYTNGMLAAAIAVEAIRRAQERFKRITNETVYQAIVGMNGPNAFKPGFAVSTKQGVEIDFTKSEHTGAEGLRILEAKGGRFVPVTEPFTSALFRKVHYGEGHHHHHH | not failed
MKHLVICIALLTVGACCFAQQKKVASHKAASGNPVFQGWYADPEGIIYDDTYWIFPTWSDLYENQTFFDCFSSKDLVNWTKHASVLDTTAVKWAKKAMWAPSVIRKNGKYYIFFGANDVHEGEIGGIGVAVSDRPEGPYKDLLGKPLINEIVNGAQPIDQFVYNDNGHYYMYYGGWGHCNVVQLNDDFTGLVPFEDGTVYKEVTPENYVEGPFMFKKDGKYYFMWSEGGWGGPDYSVAYAISDSPFGPFKRVAKILQQDPSVATSAGHHSLLHAPGTDDYYIVYHRRPLNDNARDHRVTCIDKMTFDKDGFINPVKMTFEGVPAQKIKKSKKK | failed
